Data taken from patent WO2013091903A1 (dated 2013).

T1: Peptide 1415 (entire second extracellular loop of human ORAI1) (human)
T1 peptide: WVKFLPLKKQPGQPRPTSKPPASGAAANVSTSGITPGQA

T2: Peptide 1455 (part of the second extracellular loop of human ORAI1) (human)
T2 peptide: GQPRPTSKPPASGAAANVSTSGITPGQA

T3: Peptide 1454 (part of the second extracellular loop of human ORAI1) (human)
T3 peptide: PASGAAANVSTSGITPGQA


Key:
[1] = molecular target: T1, Peptide 1415 (entire second …); assay: direct peptide ELISA, peptide coated at 1 ug/ml; (+) indicates binding was detected
[2] = molecular target: T2, Peptide 1455 (part of the second …); assay: as above
[3] = molecular target: T3, Peptide 1454 (part of the second …); assay: direct peptide ELISA, peptide coated at 1 ug/ml; (-) indicates binding could not be detected
[4] = molecular target: human ORAI1 (CRAC channel membrane protein 1) (human, UniProt Q96D31 1-301); assay: cell-based or functional assay
Chain of human ORAI1 (CRAC channel membrane protein 1) (Q96D31 whole entry, form in doubt): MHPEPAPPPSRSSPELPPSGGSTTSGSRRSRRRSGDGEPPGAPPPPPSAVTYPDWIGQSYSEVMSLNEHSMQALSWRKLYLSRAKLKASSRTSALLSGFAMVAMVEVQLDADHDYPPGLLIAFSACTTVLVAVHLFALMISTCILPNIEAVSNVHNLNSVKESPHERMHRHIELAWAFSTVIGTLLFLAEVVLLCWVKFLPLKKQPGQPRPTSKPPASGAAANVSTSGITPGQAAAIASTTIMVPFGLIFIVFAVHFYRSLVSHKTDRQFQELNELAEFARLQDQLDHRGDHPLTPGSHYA

Binder	binding result [1]	binding result [2]	binding result [3]	IC50 of inhibition of PBMC (T cell) proliferation, anti-CD3/CD28 stimulation [4] [µg/mL]
M-hCRAC1415-15F3A6 (antibody, IgG1, V domains shown, same variable domains as 17F6A2) VH: QVQLQQSGAELVRPGSSVKISCKASGYAFSSYWMNWVKQRPGQGLEWIGHIYPGDADTNYNGKFKGKATLTADKSSSTAYMHLSSLTSEDSAVYFCSRQLGFRYAMDYWGQGTSVTVSS VL: DIVMSQSPSSLAVSAGEKVTMSCKSSQSLLNSRTRKNYLAWYQQKPGQSPKLLIYWASTRESGVPDRFTGSGSGTDFTLTISSVQAEDLAVYYCKQSYNLRTFGGGTKLEIKR	binds	binds	no binding	
M-hCRAC1415-15F45A1 (antibody, IgG1, V domains shown, same variable domains as 17F6A2) VH: QVQLQQSGAELVRPGSSVKISCKASGYAFSSYWMNWVKQRPGQGLEWIGHIYPGDADTNYNGKFKGKATLTADKSSSTAYMHLSSLTSEDSAVYFCSRQLGFRYAMDYWGQGTSVTVSS VL: DIVMSQSPSSLAVSAGEKVTMSCKSSQSLLNSRTRKNYLAWYQQKPGQSPKLLIYWASTRESGVPDRFTGSGSGTDFTLTISSVQAEDLAVYYCKQSYNLRTFGGGTKLEIKR	binds	binds	no binding	
M-hCRAC1415-17F6A2 (antibody, mouse IgG1, V domains shown, Mouse monoclonal, kappa light chain; also called Anti-M-CRAC1415-17F6A2) VH: QVQLQQSGAELVRPGSSVKISCKASGYAFSSYWMNWVKQRPGQGLEWIGHIYPGDADTNYNGKFKGKATLTADKSSSTAYMHLSSLTSEDSAVYFCSRQLGFRYAMDYWGQGTSVTVSS VL: DIVMSQSPSSLAVSAGEKVTMSCKSSQSLLNSRTRKNYLAWYQQKPGQSPKLLIYWASTRESGVPDRFTGSGSGTDFTLTISSVQAEDLAVYYCKQSYNLRTFGGGTKLEIKR	binds	binds	no binding	
M-hCRAC1415-17F1A4B6 (antibody, IgG1, V domains shown, same variable domains as 17F6A2) VH: QVQLQQSGAELVRPGSSVKISCKASGYAFSSYWMNWVKQRPGQGLEWIGHIYPGDADTNYNGKFKGKATLTADKSSSTAYMHLSSLTSEDSAVYFCSRQLGFRYAMDYWGQGTSVTVSS VL: DIVMSQSPSSLAVSAGEKVTMSCKSSQSLLNSRTRKNYLAWYQQKPGQSPKLLIYWASTRESGVPDRFTGSGSGTDFTLTISSVQAEDLAVYYCKQSYNLRTFGGGTKLEIKR	binds	binds	no binding	
M-hCRAC1415-14F74A1 (antibody, mouse IgG1, V domains shown, Mouse monoclonal, kappa light chain; also called Anti-M-CRAC1415-14F74A1) VH: QVQLQQSGAELVRPGSSVKISCKASGYAFSSYWMNWVKQRPGQGLEWIGHIYPGDGDTNYNGKFKGKATLTADKSSSTAYMQLSGLTSEDSAVYFCARSGRLRFAMDYWGQGTSVTVSS VL: DIVMSQSPSSLAVSAGEKVTMSCKSSQSLLNSRTRKNYLAWYQQKPGQSPKLLIYWASTRESGVPDRFTGSGSGTDFTLTISSVQAEDLAVYYCKQSYNLRTFGGGTKLEIQR	binds	binds	no binding	
anti-M-CRAC1415-10F8 A2B6C1 (antibody, IgG1, V domains shown) VH: QVQLQQSGAELVRPGSSVKISCKASGYAFRSYWMNWVKQRPGQGLEWIGHIYPGDGDTNYNGKFKGKATLTADKSSSTAYMQLSSLTSEDSAVYLCGRGGTTVVVDYWGQGTTLTVSS VL: DIVMSQSPSSLAVSAGEKVTMSCKSSQSLLNSRTRKNYLAWYQQKPGQSPKLLIYWASTRESGVPDRFTGSGSGTDFTLTISSVQAEDLAVYYCKQSYNLPWTFGGGTKLEIKR				1
